Here are results for two molecules from paper PMC12169213 (Science (New York, N.Y.), 2025).

In one experiment the target is BRCA1-BARD1 (UniProt P38398 1-1863; Q99728 1-777). Kind of experiment: pull-down.
The next experiment concerns the target mCherry-BLM (UniProt P54132 1-1417). Kind of experiment: DNA curtain single-molecule imaging.

Sequence of BRCA1-BARD1 (P38398 whole entry, chain 1 of 2): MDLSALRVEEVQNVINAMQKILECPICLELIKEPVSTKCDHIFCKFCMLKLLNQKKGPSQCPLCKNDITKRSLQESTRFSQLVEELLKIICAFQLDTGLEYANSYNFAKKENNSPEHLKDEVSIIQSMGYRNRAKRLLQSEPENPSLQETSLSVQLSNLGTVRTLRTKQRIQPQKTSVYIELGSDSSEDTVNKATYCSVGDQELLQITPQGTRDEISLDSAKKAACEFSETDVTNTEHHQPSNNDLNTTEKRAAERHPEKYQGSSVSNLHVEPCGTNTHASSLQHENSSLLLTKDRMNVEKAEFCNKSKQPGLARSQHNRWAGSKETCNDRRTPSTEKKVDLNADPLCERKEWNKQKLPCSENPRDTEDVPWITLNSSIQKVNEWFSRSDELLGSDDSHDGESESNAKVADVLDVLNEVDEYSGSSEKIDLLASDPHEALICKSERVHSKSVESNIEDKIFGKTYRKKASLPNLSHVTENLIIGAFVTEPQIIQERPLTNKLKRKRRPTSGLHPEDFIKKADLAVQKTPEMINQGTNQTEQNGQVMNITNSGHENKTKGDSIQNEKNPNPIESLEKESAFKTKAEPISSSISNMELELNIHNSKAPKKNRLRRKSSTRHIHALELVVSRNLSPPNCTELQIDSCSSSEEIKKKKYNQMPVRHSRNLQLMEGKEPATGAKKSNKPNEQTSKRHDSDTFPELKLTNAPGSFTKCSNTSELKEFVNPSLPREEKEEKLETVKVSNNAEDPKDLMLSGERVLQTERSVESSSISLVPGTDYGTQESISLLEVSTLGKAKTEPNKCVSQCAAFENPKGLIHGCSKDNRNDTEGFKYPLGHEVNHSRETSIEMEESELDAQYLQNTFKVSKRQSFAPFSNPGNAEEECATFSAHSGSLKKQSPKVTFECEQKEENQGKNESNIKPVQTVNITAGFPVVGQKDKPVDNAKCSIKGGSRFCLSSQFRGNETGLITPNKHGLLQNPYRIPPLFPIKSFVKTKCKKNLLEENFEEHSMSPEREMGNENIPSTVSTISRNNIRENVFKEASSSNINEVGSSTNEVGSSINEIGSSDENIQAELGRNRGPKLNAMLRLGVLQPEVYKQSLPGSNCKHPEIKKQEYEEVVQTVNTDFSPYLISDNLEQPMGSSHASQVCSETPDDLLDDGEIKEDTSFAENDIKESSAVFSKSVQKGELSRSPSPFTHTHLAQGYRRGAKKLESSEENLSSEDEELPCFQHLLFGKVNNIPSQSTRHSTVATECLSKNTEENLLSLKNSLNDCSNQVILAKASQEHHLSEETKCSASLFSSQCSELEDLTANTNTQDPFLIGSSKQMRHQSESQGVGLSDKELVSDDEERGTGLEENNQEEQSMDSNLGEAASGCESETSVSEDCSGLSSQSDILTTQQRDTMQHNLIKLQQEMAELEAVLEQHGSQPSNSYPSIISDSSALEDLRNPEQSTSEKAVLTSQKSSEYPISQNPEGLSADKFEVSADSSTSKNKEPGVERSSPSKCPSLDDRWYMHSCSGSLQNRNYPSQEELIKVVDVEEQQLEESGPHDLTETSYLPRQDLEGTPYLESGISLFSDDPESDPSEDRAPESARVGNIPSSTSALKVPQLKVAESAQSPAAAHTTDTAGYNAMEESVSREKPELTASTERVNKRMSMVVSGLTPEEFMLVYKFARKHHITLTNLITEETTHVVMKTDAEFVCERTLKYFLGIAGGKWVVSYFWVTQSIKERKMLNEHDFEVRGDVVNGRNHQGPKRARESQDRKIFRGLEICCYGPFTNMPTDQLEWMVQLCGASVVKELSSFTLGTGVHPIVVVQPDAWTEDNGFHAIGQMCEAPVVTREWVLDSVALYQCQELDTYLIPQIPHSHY
Sequence of BRCA1-BARD1 (Q99728 whole entry, chain 2 of 2): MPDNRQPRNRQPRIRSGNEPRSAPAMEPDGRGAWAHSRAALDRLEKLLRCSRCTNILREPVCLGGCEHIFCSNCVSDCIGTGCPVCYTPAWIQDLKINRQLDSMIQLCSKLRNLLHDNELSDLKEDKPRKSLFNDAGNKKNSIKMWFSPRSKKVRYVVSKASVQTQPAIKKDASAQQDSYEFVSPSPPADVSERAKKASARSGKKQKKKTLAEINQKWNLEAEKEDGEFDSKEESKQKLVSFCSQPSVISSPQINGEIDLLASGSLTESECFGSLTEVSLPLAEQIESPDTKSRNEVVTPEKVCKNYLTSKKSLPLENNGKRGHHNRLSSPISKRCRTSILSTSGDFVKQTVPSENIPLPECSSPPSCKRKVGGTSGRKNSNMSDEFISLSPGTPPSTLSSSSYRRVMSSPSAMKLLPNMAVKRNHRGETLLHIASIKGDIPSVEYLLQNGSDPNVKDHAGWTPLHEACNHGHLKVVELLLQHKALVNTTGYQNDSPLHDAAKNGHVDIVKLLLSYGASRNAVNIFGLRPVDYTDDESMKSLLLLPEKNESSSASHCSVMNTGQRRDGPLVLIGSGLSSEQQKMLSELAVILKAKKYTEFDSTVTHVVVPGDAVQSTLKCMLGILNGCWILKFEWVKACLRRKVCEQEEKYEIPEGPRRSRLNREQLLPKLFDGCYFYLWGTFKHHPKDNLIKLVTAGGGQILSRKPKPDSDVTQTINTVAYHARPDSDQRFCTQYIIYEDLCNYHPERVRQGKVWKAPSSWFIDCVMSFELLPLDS
Sequence of mCherry-BLM (P54132 whole entry): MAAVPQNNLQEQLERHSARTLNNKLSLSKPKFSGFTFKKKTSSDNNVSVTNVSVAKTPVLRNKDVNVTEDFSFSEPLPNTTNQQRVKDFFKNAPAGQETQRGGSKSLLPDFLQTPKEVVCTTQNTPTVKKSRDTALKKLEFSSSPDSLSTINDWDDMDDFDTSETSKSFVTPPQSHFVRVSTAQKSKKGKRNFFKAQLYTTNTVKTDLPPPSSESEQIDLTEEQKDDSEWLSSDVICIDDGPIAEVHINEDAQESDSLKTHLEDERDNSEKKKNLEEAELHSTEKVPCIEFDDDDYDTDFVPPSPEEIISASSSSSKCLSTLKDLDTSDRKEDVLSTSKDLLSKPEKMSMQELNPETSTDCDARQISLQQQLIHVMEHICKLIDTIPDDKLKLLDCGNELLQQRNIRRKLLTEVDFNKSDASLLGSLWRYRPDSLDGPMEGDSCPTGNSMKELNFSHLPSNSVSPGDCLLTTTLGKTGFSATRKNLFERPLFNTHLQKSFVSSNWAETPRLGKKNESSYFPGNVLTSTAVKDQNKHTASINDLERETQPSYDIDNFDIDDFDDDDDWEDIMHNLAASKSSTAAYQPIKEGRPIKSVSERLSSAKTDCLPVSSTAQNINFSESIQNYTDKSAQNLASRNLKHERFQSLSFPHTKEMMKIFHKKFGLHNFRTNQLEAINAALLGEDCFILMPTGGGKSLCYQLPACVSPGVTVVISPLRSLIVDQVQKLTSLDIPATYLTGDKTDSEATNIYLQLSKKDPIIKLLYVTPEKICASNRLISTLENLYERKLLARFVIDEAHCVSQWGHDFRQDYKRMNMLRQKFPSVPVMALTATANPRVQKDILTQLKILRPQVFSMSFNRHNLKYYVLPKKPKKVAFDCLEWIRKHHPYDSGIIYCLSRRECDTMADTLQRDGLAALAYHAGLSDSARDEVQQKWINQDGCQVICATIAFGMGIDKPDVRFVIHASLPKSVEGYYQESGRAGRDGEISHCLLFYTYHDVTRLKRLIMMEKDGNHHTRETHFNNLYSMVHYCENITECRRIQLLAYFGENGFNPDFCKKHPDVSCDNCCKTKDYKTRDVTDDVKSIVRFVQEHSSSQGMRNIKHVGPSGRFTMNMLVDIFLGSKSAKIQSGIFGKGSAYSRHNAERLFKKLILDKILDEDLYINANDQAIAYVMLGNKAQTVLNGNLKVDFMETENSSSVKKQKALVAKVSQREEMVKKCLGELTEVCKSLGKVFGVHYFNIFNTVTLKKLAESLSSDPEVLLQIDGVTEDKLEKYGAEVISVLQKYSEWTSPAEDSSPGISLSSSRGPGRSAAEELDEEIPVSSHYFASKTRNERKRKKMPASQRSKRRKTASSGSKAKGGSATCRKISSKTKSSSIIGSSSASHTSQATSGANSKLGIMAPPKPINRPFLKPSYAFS

B1: CTC1-STN1-TEN1 (CST) complex (complex)
chain 1: AAGRAQVPSSEQAWLEDAQVFIQKTLCPAVKEPNVQLTPLVIDCVKTVWLSQGRNQGSTLPLSYSFVSVQDLKTHQRLPCCSHLSWSSSAYQAWAQEAGPNGNPLPREQLLLLGTLTDLSADLEQECRNGSLYVRDNTGVLSCELIDLDLSWLGHLFLFPRWSYLPPARWNSSGEGHLELWDAPVPVFPLTISPGPVTPIPVLYPESASCLLRLRNKLRGVQRNLAGSLVRLSALVKSKQKAYFILSLGRSHPAVTHVSIIVQVPAQLVWHRALRPGTAYVLTELRVSKIRGQRQHVWMTSQSSRLLLLKPECVQELELELEGPLLEADPKPLPMPSNSEDKKDPESLVRYSRLLSYSGAVTGVLNEPAGLYELDGQLGLCLAYQQFRGLRRVMRPGVCLQLQDVHLLQSVGGGTRRPVLAPCLRGAVLLQSFSRQKPGAHSSRQAYGASLYEQLVWERQLGLPLYLWATKALEELACKLCPHVLRHHQFLQHSSPGSPSLGLQLLAPTLDLLAPPGSPVRNAHNEILEEPHHCPLQKYTRLQTPSSFPTLATLKEEGQRKAWASFDPKALLPLPEASYLPSCQLNRRLAWSWLCLLPSAFCPAQVLLGVLVASSHKGCLQLRDQSGSLPCLLLAKHSQPLSDPRLIGCLVRAERFQLIVERDVRSSFPSWKELSMPGFIQKQQARVYVQFFLADALILPVPRPCLHSATPSTPQTDPTGPEGPHLGQSRLFLLCHKEALMKRNFCVPPGASPEVPKPALSFYVLGSWLGGTQRKEGTGWGLPEPQGNDDNDQKVHLIFFGSSVRWFEFLHPGQVYRLIAPGPATPMLFEKDGSSCISRRPLELAGCASCLTVQDNWTLELESSQDIQDVLDANKSLPESSLTDLLSDNFTDSLVSFSAEILSRTLCEPLVASLWMKLGNTGAMRRCVKLTVALETAECEFPPHLDVYIEDPHLPPSLGLLPGARVHFSQLEKRVSRSHNVYCCFRSSTYVQVLSFPPETTISIPLPHIYLAELLQGGQSPFQATASCHIVSVFSLQLFWVCAYCTSICRQGKCTRLGSTCPTQTAISQAIIRLLVEDGTAEAVVTCRNHHVAAALGLCPREWASLLDFVQVPGRVVLQFAGPGAQLESSARVDEPMTMFLWTLCTSPSVLRPIVLSFELERKPSKIVPLEPPRLQRFQCGELPFLTHVNPRLRLSCLSIRESEYSSSLGILASSC
chain 2: QPGSSRCEEETPSLLWGLDPVFLAFAKLYIRDILDMKESRQVPGVFLYNGHPIKQVDVLGTVIGVRERDAFYSYGVDDSTGVINCICWKKLNTESVSAAPSAARELSLTSQLKKLQETIEQKTKIEIGDTIRVRGSIRTYREEREIHATTYYKVDDPVWNIQIARMLELPTIYRKVYDQPFHSSALEKEEALSNPGALDLPSLTSLLSEKAKEFLMENRVQSFYQQELEMVESLLSLANQPVIHSASSDQVNFKKDTTSKAIHSIFKNAIQLLQEKGLVFQKDDGFDNLYYVTREDKDLHRKIHRIIQQDCQKPNHMEKGCHFLHILACARLSIRPGLSEAVLQQVLELLEDQSDIVSTMEHYYTAF
chain 3: LPKPGTYYLPWEVSAGQVPDGSTLRTFGRLCLYDMIQSRVTLMAQHGSDQHQVLVCTKLVEPFHAQVGSLYIVLGELQHQQDRGSVVKARVLTCVEGMNLPLLEQAIREQRLYKQERGGSQ
Take B1: the binding result with BRCA1-BARD1 was “binds”.

B2: green fluorescent protein (GFP)-DNA2 (enzyme, UniProt P51530 1-1060, looked up)
chain: MEQLNELELLMEKSFWEEAELPAELFQKKVVASFPRTVLSTGMDNRYLVLAVNTVQNKEGNCEKRLVITASQSLENKELCILRNDWCSVPVEPGDIIHLEGDCTSDTWIIDKDFGYLILYPDMLISGTSIASSIRCMRRAVLSETFRSSDPATRQMLIGTVLHEVFQKAINNSFAPEKLQELAFQTIQEIRHLKEMYRLNLSQDEIKQEVEDYLPSFCKWAGDFMHKNTSTDFPQMQLSLPSDNSKDNSTCNIEVVKPMDIEESIWSPRFGLKGKIDVTVGVKIHRGYKTKYKIMPLELKTGKESNSIEHRSQVVLYTLLSQERRADPEAGLLLYLKTGQMYPVPANHLDKRELLKLRNQMAFSLFHRISKSATRQKTQLASLPQIIEEEKTCKYCSQIGNCALYSRAVEQQMDCSSVPIVMLPKIEEETQHLKQTHLEYFSLWCLMLTLESQSKDNKKNHQNIWLMPASEMEKSGSCIGNLIRMEHVKIVCDGQYLHNFQCKHGAIPVTNLMAGDRVIVSGEERSLFALSRGYVKEINMTTVTCLLDRNLSVLPESTLFRLDQEEKNCDIDTPLGNLSKLMENTFVSKKLRDLIIDFREPQFISYLSSVLPHDAKDTVACILKGLNKPQRQAMKKVLLSKDYTLIVGMPGTGKTTTICTLVRILYACGFSVLLTSYTHSAVDNILLKLAKFKIGFLRLGQIQKVHPAIQQFTEQEICRSKSIKSLALLEELYNSQLIVATTCMGINHPIFSRKIFDFCIVDEASQISQPICLGPLFFSRRFVLVGDHQQLPPLVLNREARALGMSESLFKRLEQNKSAVVQLTVQYRMNSKIMSLSNKLTYEGKLECGSDKVANAVINLRHFKDVKLELEFYADYSDNPWLMGVFEPNNPVCFLNTDKVPAPEQVEKGGVSNVTEAKLIVFLTSIFVKAGCSPSDIGIIAPYRQQLKIINDLLARSIGMVEVNTVDKYQGRDKSIVLVSFVRSNKDGTVGELLKDWRRLNVAITRAKHKLILLGCVPSLNCYPPLEKLLNHLNSEKLIIDLPSREHESLCHILGDFQRE
As to B2, the binding result with mCherry-BLM was “binds”.
